Source: patent publication US20240270820A1 (ELANCO US, published 2024)

T1: canine IL13 with C-terminal poly-His tag (canine, UniProt Q9N0W9 19-131)
T1 construct: Expressed in 293 cells and purified from the supernatant
T1 sequence: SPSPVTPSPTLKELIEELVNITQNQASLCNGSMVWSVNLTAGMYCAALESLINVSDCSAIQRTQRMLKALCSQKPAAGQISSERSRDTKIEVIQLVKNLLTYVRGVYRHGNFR

T2: canine IL4 (Sino Biological Inc, Cat #70021-DNAE-5) (canine, UniProt O77762 25-132)
T2 sequence (looked up): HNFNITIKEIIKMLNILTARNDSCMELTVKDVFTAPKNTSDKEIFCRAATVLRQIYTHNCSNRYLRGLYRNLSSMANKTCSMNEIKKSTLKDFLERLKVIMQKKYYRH

B1: canine IL13R-IL4R-IgGB (Fc fusion)
chain: TETQPPVTNLSVSVENLCTVIWTWDPPEGASPNCTLRYFSHFDNKQDKKIAPETHRSKEVPLNERICLQVGSQCSTNESDNPSILVEKCTPPPEGDPESAVTELQCVWHNLSYMKCTWLPGRNTSPDTNYTLYYWHSSLGKILQCEDIYREGQHIGCSFALTNLKDSSFEQHSVQIVVKDNAGKIRPSFNIVPLTSHVKPDPPHIKRLFFQNGNLYVQWKNPQNFYSRCLSYQVEVNNSQTETNDIFYVEEAKCQNSEFEGNLEGTICFMVPGVLPDTLNTVRIRVRTNKLCYEDDKLWSNWSQAMSIGENTDPTGGGSGSGSVKVLHEPSCFSDYISTSVCQWKMDHPTNCSAELRLSYQLDFMGSENHTCVPENREDSVCVCSMPIDDAVEADVYQLDLWAGQQLLWSGSFQPSKHVKPRTPGNLTVHPNISHTWLLMWTNPYPTENHLHSELTYMVNVSNDNDPEDFKVYNVTYMGPTLRLAASTLKSGASYSARVRAWAQTYNSTWSDWSPSTTWLNYYEPKRENGRVPRPPDCPKCPAPEMLGGPSVFIFPPKPKDTLLIARTPEVTCVVVDLDPEDPEVQISWFVDGKQMQTAKTQPREEQFNGTYRVVSVLPIGHQDWLKGKQFTCKVNNKALPSPIERTISKARGQAHQPSVYVLPPSREELSKNTVSLTCLIKDFFPPDIDVEWQSNGQQEPESKYRTTPPQLDEDGSYFLYSKLSVDKSRWQRGDTFICAVMHEALHNHYTQESLSHSPGK
notes: also called Canis lupus IL13R-IL4R-Fc; canine IL13R-IL4R-Fc
B2: canine IL4R-IL13R-IgGB (Fc fusion)
chain: SGSVKVLHEPSCFSDYISTSVCQWKMDHPTNCSAELRLSYQLDFMGSENHTCVPENREDSVCVCSMPIDDAVEADVYQLDLWAGQQLLWSGSFQPSKHVKPRTPGNLTVHPNISHTWLLMWTNPYPTENHLHSELTYMVNVSNDNDPEDFKVYNVTYMGPTLRLAASTLKSGASYSARVRAWAQTYNSTWSDWSPSTTWLNYYEPGGGSGTETQPPVTNLSVSVENLCTVIWTWDPPEGASPNCTLRYFSHFDNKQDKKIAPETHRSKEVPLNERICLQVGSQCSTNESDNPSILVEKCTPPPEGDPESAVTELQCVWHNLSYMKCTWLPGRNTSPDTNYTLYYWHSSLGKILQCEDIYREGQHIGCSFALTNLKDSSFEQHSVQIVVKDNAGKIRPSFNIVPLTSHVKPDPPHIKRLFFQNGNLYVQWKNPQNFYSRCLSYQVEVNNSQTETNDIFYVEEAKCQNSEFEGNLEGTICFMVPGVLPDTLNTVRIRVRTNKLCYEDDKLWSNWSQAMSIGENTDPTPKRENGRVPRPPDCPKCPAPEMLGGPSVFIFPPKPKDTLLIARTPEVTCVVVDLDPEDPEVQISWFVDGKQMQTAKTQPREEQFNGTYRVVSVLPIGHQDWLKGKQFTCKVNNKALPSPIERTISKARGQAHQPSVYVLPPSREELSKNTVSLTCLIKDFFPPDIDVEWQSNGQQEPESKYRTTPPQLDEDGSYFLYSKLSVDKSRWQRGDTFICAVMHEALHNHYTQESLSHSPGK
notes: also called canine IL4R-IL13R-Fc; Canine IL4R-IL13R-Fc (SINK)

Assays:
[1] = biological target: T1, canine IL13 with C-terminal poly-His tag; experiment: BLI (Octet), summary sentence of Example 4
[2] = biological target: T2, canine IL4 (Sino Biological Inc, Cat …); experiment: cell-based or functional assay

Binder | binding result [1] | TF1 cell proliferation assay (CellTiter-Glo luminescence), IC50 by 4 parameter logistic fit [2] [nM]
B1 | binds | –
B2 | binds | 2
